Experiment [1] concerns the target human μ-opioid receptor (μOR), wild type, with HA signal sequence at the N terminus and LgBiT at the C terminus (modified pfastbac1) (human) (UniProt P35372). The experiment is described as follows: split reporter (BiFC, NanoBiT); NanoBiT on Sf9 membranes co-expressing μOR-LgBiT, Gαi1, Gβ1-SmBiT and Gγ2, in PBS pH 7.4; dose-response of fentanyl, 15 min at room temperature, luminescence; normalized to DAMGO.

Experiment [2] has the same target. The experiment in a line: split reporter (BiFC, NanoBiT); NanoBiT on Sf9 membranes co-expressing μOR-LgBiT, Gαi1, Gβ1-SmBiT and Gγ2, in PBS pH 7.4; dose-response of FD-3, 15 min at room temperature, luminescence; normalized to DAMGO.

Bounds are passed on as bounds.

From PMC7176292 come the findings set out here.

Chain of Gi protein complex (Gαi1, Gβ1 with SmBiT at the C terminus, Gγ2) (P63096 whole entry): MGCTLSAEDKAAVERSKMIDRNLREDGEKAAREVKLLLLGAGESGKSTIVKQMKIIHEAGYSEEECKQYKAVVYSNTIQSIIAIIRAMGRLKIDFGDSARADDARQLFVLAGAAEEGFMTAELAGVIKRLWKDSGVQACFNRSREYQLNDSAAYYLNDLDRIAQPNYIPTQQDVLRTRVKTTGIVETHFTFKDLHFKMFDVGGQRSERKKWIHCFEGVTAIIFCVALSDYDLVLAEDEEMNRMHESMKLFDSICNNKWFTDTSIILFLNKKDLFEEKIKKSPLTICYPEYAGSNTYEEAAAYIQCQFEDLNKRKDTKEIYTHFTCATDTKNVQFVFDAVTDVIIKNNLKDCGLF
Chain of Gi protein complex (Gαi1, Gβ1 with SmBiT at the C terminus, Gγ2) (P62873 whole entry): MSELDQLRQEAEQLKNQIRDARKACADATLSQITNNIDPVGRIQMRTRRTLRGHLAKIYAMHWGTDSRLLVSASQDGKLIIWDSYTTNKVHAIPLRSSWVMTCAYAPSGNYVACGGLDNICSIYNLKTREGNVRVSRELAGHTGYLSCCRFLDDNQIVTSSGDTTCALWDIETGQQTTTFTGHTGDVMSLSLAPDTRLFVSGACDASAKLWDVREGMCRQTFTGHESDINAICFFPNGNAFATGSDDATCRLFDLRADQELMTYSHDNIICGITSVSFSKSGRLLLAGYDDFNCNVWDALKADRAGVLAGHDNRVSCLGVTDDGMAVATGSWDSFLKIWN
Chain of Gi protein complex (Gαi1, Gβ1 with SmBiT at the C terminus, Gγ2) (P59768 whole entry): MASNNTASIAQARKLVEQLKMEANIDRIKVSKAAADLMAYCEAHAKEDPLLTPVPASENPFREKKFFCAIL

As for “Gi protein complex (Gαi1, Gβ1 with SmBiT at the C terminus, Gγ2) (from UniProt P63096 1-354; P62873 1-340; P59768 1-71)”, the maximal Gi coupling (normalized to DAMGO) in experiment [1] is > 55%. In experiment [2], this substance yielded a maximal coupling efficiency relative to morphine of 67%.
